Biological target: SARS-CoV-2-3Q-FL spike (without 2P) (SARS-CoV-2) (UniProt P0DTC2)
Experiment: cryo-EM structure

SARS-CoV-2-3Q-FL spike (without 2P) (from UniProt P0DTC2 14-1273) (natural protein)
stoichiometry N: 3

From PMC7857404
